Consider seven compounds from US20260007756A1, “COMPOUND AND USE THEREOF” (COHERENT BIOPHARMA (SUZHOU) LIMITED, priority 2022, published 2026).

Molecules are shown by their SMILES. In brackets after ≈: the same amount, converted by molar mass. Read-outs that look alike come from different tables or passages of the source.

One may read the IC50 as the concentration that gives 50% inhibition. Lower therefore signals greater potency in that assay.

A short description of data set [1]: Solubility study in PBS. The conditions noted are these: aqueous buffer, thermodynamic from solid; PBS (pH 7.2 to 7.4); read-out: Solubility, concentration. Type of data set: physicochemical. As for the experimental part: The mixture was vortexed for 2 min until the solid was dissolved. The solubility was calculated as: C=m/V, C: concentration, m: sample weight, V: PBS total volume.

Data set [2] relates to 22RV1. The data set is classed as cell-based, human. Particulars: 22RV1, 72 h, CellTiter-Glo. The source says:
(§1) Negative and blank controls were set.
(In general: ATP-based viability assays read luminescence as a measure of living cells.)

For data set [3], the system named is MDA-MB-231. The data set is classed as cell-based, human. The conditions noted are these: MDA-MB-231, 72 h, CellTiter-Glo.
From the text: as §1

The target in data set [4] is cathepsin B-human liver (Homo sapiens, UniProt P07858). The conditions noted are these: 37° C.
Procedure: • 1) The conjugate compounds were prepared into 500 μg/mL stock solutions with 0.1% TFA-acetonitrile water (1:1); • 2) 60 μL of 500 μg/mL compound stock solution was added to 536 μL of 50 mM NaOAc (containing 1 mM EDTA+10 mM Cys), before 4 μL of cathepsin B (CB enzyme) was added, and the mixture was well mixed by gentle shaking. • 3) The cleavage reaction system in step 2) was transferred to a thermostatic incubator at 37° C. for 0 h, 1 h, 2 h, 4 h, or 24 h of incubation. Samples were taken and loaded at various time points for LC-MS analysis.
The nature of data set [5]: Plasma stability study 2. The data set is classed as in vitro ADME. The conditions noted are these: mouse plasma, 37° C.; for remaining at 0.5 h, 100 μg/mL / remaining at 1 h, 100 μg/mL / remaining at 2 h, 100 μg/mL / remaining at 4 h, 100 μg/mL / remaining at 6 h, 100 μg/mL: read-out: Residual rate of principal component.
Procedure: • 1) The conjugate compounds were prepared into 1 mg/mL stock solutions with 0.1% TFA-acetonitrile water (1:1); • 2) 10 μL of 1 mg/mL compound stock solution was added into 90 μL of fresh plasma, and the mixture was well mixed by gentle shaking, and transferred to a thermostatic incubator at 37° C. for 0 h, 0.5 h, 1 h, 2 h, 4 h, 6 h, or 24 h of incubation; • 3) at the time points, samples were taken out and 300 μL of methanol solution (containing 10 ng/ml of terfenadine) was added for protein precipitation; • 4) the mixture was centrifuged (13 min, 4° C., 12000 rpm) and the supernatant was collected, and preserved in a −80° C. refrigerator; after collection, the samples were loaded for LC-MS analysis.
For data set [6], the system named is C4-2. The conditions noted are these: C4-2, 72 h, CellTiter-Glo.
Procedure: Cells were prepared in advance, trypsinized, collected, counted, diluted to 1.5×10^4 cells/mL in a complete cell culture medium, and plated in 96-well plates. The diluted cell suspension was added at 100 μL/well, and negative and blank control wells were set on each plate. The 96-well plates with the added cells were incubated overnight at 37° C. in a 5% CO2 incubator.
Samples were serially diluted with medium (serially 3-fold diluted from 10 μM) to 9 concentrations. The medium in the plates was discarded, and the drug solutions were added at 100 μL per well to a 96-well plate in triplicate. Negative and blank controls were set. The plates were incubated at 37° C. for 72 h in a 5% CO2 incubator.
The CellTiter-Glo buffer was thawed and warmed to room temperature, and the CellTiter-Glo substrate was warmed to room temperature. The CellTiter-Glo buffer was added to the flask containing CellTiter-Glo substrate to dissolve the substrate, thereby preparing a CellTiter-Glo working solution, which was then vortexed slowly to complete dissolution. The cell culture plates were equilibrated at room temperature for 30 min, before the CellTiter-Glo working solution was added at 50 μL/well (about half the volume of cell culture medium in each well). The plate was covered by aluminum foil to keep out of light. The culture plate was shaken on an orbital shaker for 2 min to induce cell lysis. The culture plate was left to stand at room temperature for 10 min to stabilize the luminescence signals. The luminescence signal was detected on a microplate reader (Molecular Devices SpectraMax iD5).
Four-parameter curves were fitted using GraphPad Prism 8.0.2 to give IC50 values.
Data set [7] deals with VCaP. Briefly: Expansion inhibition of tumor cells (Example 9, CellTiter-Glo). The conditions noted are these: 72 h. The data set is classed as cell-based, human.
From the text: (§2) Information on cell lines: LNCaP (human prostate cancer cell) and VCaP (human prostate cancer cell)
as §1

For data set [8], the system named is LNCaP. The data set is described as above. Particulars: 72 h. Type of data set: cell-based, human.
From the text: as §2, §1

In data set [9] the test system is sulfatase. Briefly: in vitro. Particulars: isolated sulfatase, pH 7.4.
Procedure: (§3) • 1) The compounds were formulated into 500 μg/mL stock solutions with PBS (pH 7.4); • 2) 60 μL of 500 μg/mL compound stock solution was added to 420 μL PBS (pH 7.4), before 60 μL of 0.2 U/mL plasmin (or 60 μL of 0.5 U/mL sulfatase) was added, and the mixture was well mixed by gentle shaking; • 3) The cleavage reaction system in step 2) was transferred to a thermostatic incubator at 37° C. for 0 h, 1 h, 2 h, 4 h, or 24 h of incubation. Samples were taken and loaded at various time points for LC-MS analysis.
Data set [10] deals with sulfatase. The conditions noted are these: PBS pH 7.4, 37° C.
Procedure: as §3

Take `CC[C@@H]1C(=O)N(C)c2cnc(Nc3ccc(-c4cn([C@H]5CC[C@@H](N(CCOCCC#Cc6cccc7c6CN(C6CCC(=O)NC6=O)C7=O)C(=O)OCc6ccc(NC(=O)[C@H](CCCNC(N)=O)NC(=O)[C@@H](NC(=O)[C@H](CCC(=O)O)NC(=O)COCCOCCn7cc(C[C@H](NC(=O)[C@H](CCCCN)NC(=O)[C@H](CC(=O)O)NC(=O)[C@H](CC(=O)O)NC(=O)Cc8ccc(CNC(=O)NCCCC[C@H](NC(=O)N[C@@H](CCC(=O)O)C(=O)O)C(=O)O)cc8)C(=O)N[C@@H](CCCCNC(=O)CC[C@H](NC(=O)c8ccc(NCc9cnc%10[nH]c(N)nc(=O)c%10n9)cc8)C(=O)O)C(N)=O)nn7)C(C)C)cc6)CC5)nn4)cc3OC)nc2N1C1CCCC1` (some centres unmarked) [CR202V4]: the solubility at 2 min in data set [1] is 8000 µg/mL (≈ 2580 µM). Also, the 50% inhibitory concentration (IC50) was found to be 222 nM in data set [2], 234 nM in [3] and 84.7 nM in data set [6]. In addition, the “CR20274 release rate of compounds after cleavage” value (“CR20274 release rate of compounds” for short) in [4] (0 h) is on record as 0%; in [4] (1 h) it was 100%; in [4] (2 h) it was 100%; in [4] (4 h) it was 100%; in data set [4] (24 h), 100%. The “Principal component residue of compounds after cleavage” value (“Principal component residue” below) in data set [4] (0 h) was 100.00%; in data set [4] (1 h), 0.00%; in [4] (2 h), 0.00%; in [4] (4 h) it was 0.00%; in [4] (24 h) it was 0.00%. Also, the “CR20274 release rate (actual release/theoretical release)” value was −0.12% in [5] (0 h); 0.04% in data set [5] (0.5 h); 0.11% in [5] (1 h); 0.17% in data set [5] (2 h); 0.30% in data set [5] (4 h); 0.42% in [5] (6 h). In addition, the “CR20274 release rate (actual release/theoretical release)” value in [5] (24 h) stood at 2.62%. In addition, the “Residual rate of principal component” value amounted to 84.13% in data set [5] (0 h) and 1.36% in data set [5] (24 h). Also, in data set [5] (0.5 h), the remaining at 0.5 h, 100 μg/mL worked out at 75.9%. In addition, in data set [5] (1 h), the remaining at 1 h, 100 μg/mL is 74.3%. Also, the remaining at 2 h, 100 μg/mL in data set [5] (2 h) was 78.2%. Further, the remaining at 4 h, 100 μg/mL in data set [5] (4 h) came to 61.3%. For the same compound, in [5] (6 h), the remaining at 6 h, 100 μg/mL turned out to be 70.4%.
As to `Cc1ncsc1-c1ccc(C(C)NC(=O)C2CC(O)CN2C(=O)C(NC(=O)COCCCOCCNC(=O)CC2N=C(c3ccc(Cl)cc3)c3c(sc(C)c3C)-n3c(C)nnc32)C(C)(C)C)cc1` (centres unmarked) [CR202ES, ARV-771], the half-maximal inhibitory concentration (IC50) came to 10.9 nM in data set [7] (Homo sapiens) and 8.7 nM in [8] (Homo sapiens).
Consider `CC[C@@H]1C(=O)N(C)c2cnc(Nc3ccc(-c4cn([C@H]5CC[C@@H](N(CCOCCC#Cc6cccc7c6CN(C6CCC(=O)NC6=O)C7=O)C(=O)OC(Cc6cn(CCOCCOCCNC(=O)COCCOCCn7cc(C[C@H](NC(=O)[C@H](CCCCN)NC(=O)[C@H](CC(=O)O)NC(=O)[C@H](CC(=O)O)NC(=O)Cc8ccc(CNC(=O)NCCCC[C@H](NC(=O)N[C@@H](CCC(=O)O)C(=O)O)C(=O)O)cc8)C(=O)N[C@@H](CCCCNC(=O)CC[C@H](NC(=O)c8ccc(NCc9cnc%10[nH]c(N)nc(=O)c%10n9)cc8)C(=O)O)C(N)=O)nn7)nn6)c6ccc(OS(=O)(=O)O)c([N+](=O)[O-])c6)CC5)nn4)cc3OC)nc2N1C1CCCC1` (some centres unmarked) [CR202W1], for which the solubility at 2 min in data set [1] was 8100 µg/mL (≈ 2650 µM). Also, the figures for the half-maximal inhibitory concentration (IC50) in data set [2], in [3] and in data set [6] were 112 nM, 120 nM and 43.2 nM, respectively. Also, in [9], the remaining at 1 h, 55.6 µg/mL was 89%. In addition, in data set [9], the remaining at 2 h, 55.6 µg/mL was 80%. Further, in data set [9], the remaining at 4 h, 55.6 µg/mL turned out to be 69%. Further, the remaining at 24 h, 55.6 µg/mL in data set [9] worked out at 37%. Besides, the “CR20274 release rate (actual release/theoretical release)” value turned out to be 0.68% in data set [5] (0 h); 0.63% in [5] (0.5 h); 0.83% in [5] (1 h); 0.80% in data set [5] (2 h); 0.96% in data set [5] (4 h); 0.88% in data set [5] (6 h). Moreover, the “CR20274 release rate (actual release/theoretical release)” value in data set [5] (24 h) amounted to 2.82%. The results for the “Residual rate of principal component” value in data set [5] (0 h) and in data set [5] (24 h) were 105.30% and −2.67%, respectively. Also, the remaining at 0.5 h, 100 μg/mL in [5] (0.5 h) came to 89.4%. Moreover, the remaining at 1 h, 100 μg/mL in data set [5] (1 h) came out at 103%. In addition, the remaining at 2 h, 100 μg/mL in data set [5] (2 h) is 105%. Besides, the remaining at 4 h, 100 μg/mL in data set [5] (4 h) turned out to be 108%. The remaining at 6 h, 100 μg/mL in data set [5] (6 h) was determined as 84.8%. Also, the “CR20274 release rate of compounds” value in [10] (0 h) is given as 0%; in [10] (1 h), 9%; in data set [10] (2 h) it was 15%; in [10] (4 h), 27%; in data set [10] (24 h), 56%. Besides, the “Principal component residue” value in data set [10] (0 h) was determined as 97%.
`CC[C@@H]1C(=O)N(C)c2cnc(Nc3ccc(-c4cn([C@H]5CC[C@@H](N(CCOCCC#Cc6cccc7c6CN(C6CCC(=O)NC6=O)C7=O)C(=O)OCc6ccc(NC(=O)[C@H](CCCNC(N)=O)NC(=O)[C@@H](NC(=O)COCCOCCn7cc(C[C@H](NC(=O)[C@H](CCCCN)NC(=O)[C@H](CC(=O)O)NC(=O)[C@H](CC(=O)O)NC(=O)Cc8ccc(CNC(=O)NCCCC[C@H](NC(=O)N[C@@H](CCC(=O)O)C(=O)O)C(=O)O)cc8)C(=O)N[C@@H](CCCCNC(=O)CC[C@H](NC(=O)c8ccc(NCc9cnc%10[nH]c(N)nc(=O)c%10n9)cc8)C(=O)O)C(N)=O)nn7)C(C)C)cc6)CC5)nn4)cc3OC)nc2N1C1CCCC1` (some centres unmarked) [CR202V5]: the solubility in data set [1] was 2800 µg/mL (≈ 941 µM). Further, the IC50 in [2] is 779 nM; in data set [3], 412 nM; in data set [6] it was 144 nM. For the same compound, the “CR20274 release rate of compounds” value in [4] (0 h) was 0%; in [4] (1 h), 100%; in data set [4] (2 h) it was 100%; in data set [4] (4 h) it was 100%; in [4] (24 h), 100%. For the same compound, the “Principal component residue” value came to 100.00% in data set [4] (0 h); 2.37% in data set [4] (1 h); 0% in data set [4] (2 h); 0% in [4] (4 h); 0% in data set [4] (24 h). Moreover, the “CR20274 release rate (actual release/theoretical release)” value in data set [5] (0 h) is recorded as 0.02%; in data set [5] (0.5 h), 0.17%; in data set [5] (1 h), 0.25%; in data set [5] (2 h) it was 0.37%; in data set [5] (4 h), 0.94%; in [5] (6 h), 0.97%. Also, the “CR20274 release rate (actual release/theoretical release)” value in data set [5] (24 h) came to 3.92%. The “Residual rate of principal component” value in data set [5] (0 h) is on record as 94.75%; in data set [5] (24 h), −1.03%. Also, the remaining at 0.5 h, 100 μg/mL in data set [5] (0.5 h) stood at 101%. For the same compound, the remaining at 1 h, 100 μg/mL in [5] (1 h) turned out to be 94.9%. Besides, the remaining at 2 h, 100 μg/mL in data set [5] (2 h) turned out to be 94.7%. Further, the remaining at 4 h, 100 μg/mL in [5] (4 h) was determined as 90.6%. Besides, the remaining at 6 h, 100 μg/mL in [5] (6 h) turned out to be 80.4%.
For `Cc1ncsc1-c1ccc(CNC(=O)[C@@H]2C[C@@H](OC(=O)OCc3ccc(NC(=O)[C@H](CCCNC(N)=O)NC(=O)[C@@H](NC(=O)COCCOCCn4cc(C[C@H](NC(=O)[C@H](CCCCN)NC(=O)[C@H](CC(=O)O)NC(=O)[C@H](CC(=O)O)NC(=O)Cc5ccc(CNC(=O)NCCCC[C@H](NC(=O)N[C@@H](CCC(=O)O)C(=O)O)C(=O)O)cc5)C(=O)N[C@@H](CCCCNC(=O)CC[C@H](NC(=O)c5ccc(NCc6cnc7[nH]c(N)nc(=O)c7n6)cc5)C(=O)O)C(N)=O)nn4)C(C)C)cc3)CN2C(=O)[C@@H](NC(=O)CCCCCCCCCCNC(=O)c2cc3c(cc2CS(C)(=O)=O)-c2cn(C)c(=O)c4[nH]cc(c24)CN3c2ncc(F)cc2F)C(C)(C)C)cc1` [CR202W8], the values for the IC50 in [7] and in [8] were 2.7 nM and 5.3 nM, respectively.
Regarding `Cc1ncsc1-c1ccc([C@H](CC(=O)N2CCC(N3CCC(C#Cc4ccc(C(=O)NC5C(C)(C)C(Oc6ccc(C#N)c(Cl)c6)C5(C)C)cc4)CC3)CC2)NC(=O)[C@@H]2C[C@@H](O)CN2C(=O)[C@@H](NC(=O)C2(F)CC2)C(C)(C)C)cc1` (some centres unmarked) [CR202Z9, ARD-69], the half-inhibitory concentration (IC50) in [7] was 12.4 nM; in [8], 418 nM.
`Cc1ncsc1-c1ccc(CNC(=O)[C@@H]2C[C@@H](O)CN2C(=O)[C@@H](NC(=O)COCCCCOc2ccc(-c3ccc(N4C(=S)N(c5ccc(C#N)c(C(F)(F)F)c5)C(=O)C4(C)C)cc3)cc2)C(C)(C)C)cc1` [CR202Z5, ARCC-4]: the 50% inhibitory concentration (IC50) in data set [7] (Homo sapiens) worked out at 183 nM; in data set [8] (Homo sapiens) it was 373 nM.
